Source: paper PMC6355189, “A structural model of the immune checkpoint CD160–HVEM complex derived from HDX-mass spectrometry and molecular modeling” (Oncotarget, 2019)
Ends that are not written are not given here.

T1: Human HVEM-Fc protein (human, UniProt Q92956 39-202)
T1 construct: herpes virus entry mediator (HVEM), human, as Fc fusion, bought; Detected by goat anti-human IgG(H+L)-HRP; source: bought: ACROBiosystems, USA (#HVM-H5258)
T1 sequence (looked up): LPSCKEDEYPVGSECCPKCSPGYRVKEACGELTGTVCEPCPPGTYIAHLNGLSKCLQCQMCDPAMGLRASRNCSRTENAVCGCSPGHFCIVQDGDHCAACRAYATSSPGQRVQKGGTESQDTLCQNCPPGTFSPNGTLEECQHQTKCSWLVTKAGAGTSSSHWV

T2: Recombinant human protein HVEM with His Tag (human, UniProt Q92956 39-202)
T2 construct: herpes virus entry mediator (HVEM), human, recombinant, bought; also called HVEM protein; herpes virus entry mediator; source: bought: Sino Biological Inc., China (#10334-H08H)
T2 sequence (looked up): T1 sequence (looked up)

B1: CD160(61–80) peptide elongated by five glycine residues and biotin (peptide)
peptide: GVGEISSQLMFTISQVTPLH
modifications: also: elongated by five glycine residues and biotin, end not given here
notes: CD160, human, residues 61-80; source: synthetic peptide
B2: CD160 (61–80) (peptide)
peptide: Ac-GVGEISSQLMFTISQVTPLH-NH2
notes: as for B1

Tests used:
Human HVEM-Fc protein = molecular target: T1, Human HVEM-Fc protein; experiment: ELISA; biotinylated peptides or biotinylated CD160 (1 μg/ml) on a streptavidin microplate; HVEM-Fc at 20, 10 and 5 μg/ml, 1 hour at 25°C; PBS-T (5 mM Na2HPO4, 150 mM NaCl with addition of 0.3 M NaCl and 0.05% Tween-20, pH 7.4); detection by goat antihuman IgG(H+L)–HRP; conditions: both partners purified
[1] = molecular target: T2, Recombinant human protein HVEM with His …; experiment: microcolumn affinity test with mass spectrometry; HVEM protein immobilised in a microcolumn; peptide applied; supernatant, last wash and elution analysed by mass spectrometry; conditions: both partners purified

Row | Binder | binding result (Human HVEM-Fc protein) | binding result [1]
1 | B1 | binds | 
2 | B2 |  | binds
